Measurements reported in US20220023406A1.

Target: HB-EGF receptor for diptheria toxin/CRM197 (heparin-binding epidermal growth factor-like precursor) on OV90 ovarian cancer cells (UniProt Q99075)
Test: cell-based or functional assay

Sequence of UniProt Q99075 (Q99075 63-148 limits assumed): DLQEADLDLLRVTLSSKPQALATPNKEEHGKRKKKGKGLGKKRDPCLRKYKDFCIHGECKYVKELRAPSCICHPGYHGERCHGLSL

## CRM197-Alexa488 (from UniProt P00587 26-560)
  labelling of OV90 tumor cells with CRM197-Alexa488 after 24 hours (flow cytometry, 10 µg/mL, without trypan blue): 98.2%
  percentage of CRM197-Alexa488 uptake by OV90 tumor cells after 4 hours (flow cytometry, 10 µg/mL, without trypan blue): 82%
  percentage of OV90 cells with intracellular CRM197-Alexa488 after 4 hours (flow cytometry, with trypan blue quenching): 72.7%
  percentage of OV90 cells with intracellular CRM197-Alexa488 after 24 hours (flow cytometry, with trypan blue quenching): 97.6%
